Measurements from patent US20180011085A1.

Biological target: purified recombinant M1 protein from influenza virus labeled with His-tag (influenza virus)
Assay: Western blot of 0.1-10 ng M1-HisTag, HRP-conjugated antibody 1:2000, chemiluminescence

Substance “antibody against His-tag conjugated with horseradish peroxidase (Sigma, #A7058-1VL)” has a limit of detection of 500 pg.
